15 sequences from the supplement of paper PMC12764529 can be followed below.

± gives the half width of the 95% confidence interval.

Series [1] is described as follows: folding stability dG unfold from trypsin proteolysis; higher = more stable. The gist of the method: (§1)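 Unfolding free energy was derived, per protease or combined, against a sequence-predicted unfolded-state K50 and a shared folded-state K50, starting from K50 inferred by Bayesian fitting of sequencing counts. Digestion with trypsin and chymotrypsin was carried out on designed mini-proteins under 80 residues without cysteine in a PA-tagged cDNA display construct. Only designs with AlphaFold2 dimer inter-PAE above 15 were kept.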

Series [2] can be described thus: folding stability dG unfold (combined trypsin and chymotrypsin); higher = more stable. An outline of the steps:
as §1

Series [3] is described as follows: folding stability dG unfold from chymotrypsin proteolysis; higher = more stable. The gist of the method: as §1

With “SAGGPITITIKTKNGKELELKLPGIRSVQFNPDSVWIAFKFPDQYIMIQINPPNGKIMIQIMPPGQPISAGG [r13_392_TrROS]”, the “folding stability dG unfold” value in series [1] turned out to be 2.47 ± 0.097 kcal/mol; in series [2] it was 3.18 ± 0.14 kcal/mol; in series [3], 3.66 ± 0.053 kcal/mol.

“SAGGPKITIMWPEGMPPEELENFLKKLNPNYKVEYRPMPPEDMKDMPPGDVVISIPFDGRYWYLRIKPSAGG [r13_649_TrROS]”: the “folding stability dG unfold” value is 1.65 ± 0.048 kcal/mol in series [1], 1.88 ± 0.081 kcal/mol in series [2] and 1.99 ± 0.095 kcal/mol in series [3].

Regarding “SAGGPKKITIHITEMYRNKNGPYYYRVEIRDGGKPKEYNFPFDSPDEMLDNIEKLADELGLKVEIEPFSAGG [r13_750_TrROS]”, the “folding stability dG unfold” value turned out to be 1.55 ± 0.06 kcal/mol in series [1], 1.88 ± 0.22 kcal/mol in series [2] and 2.16 ± 0.16 kcal/mol in series [3].

Turning to “SAGGPKWVIIIEIEIKPKNNGKEFEFTFVFPPGQTLDEIKSFIKEFAPPGHKVELKIEDIQLVPPDDSAGGS [r16_393_TrROS]”, the entries for the “folding stability dG unfold” value in series [1], in series [2] and in series [3] were 2.2 ± 0.15 kcal/mol, 2.4 ± 0.12 kcal/mol and 2.41 ± 0.039 kcal/mol, respectively.

Regarding “SAGGPLGNLTLDQIVDLVREAFPDLPVRVDVEPIDEETGYVRVTVEPPLPNGGTARAEFILPILPDDSAGGS [r16_564_TrMRF]”, the “folding stability dG unfold” value in series [1] is 0.787 ± 0.019 kcal/mol; in series [2], 1.07 ± 0.076 kcal/mol; in series [3] it was 1.26 ± 0.066 kcal/mol.

For “SAGGPLQIKVEPLNRDPKDGKREVRIEITFPEEDMKKNPENRQLAEYIAKSLAKEPGADKVEVDIHWSAGGS [r16_416_TrROS]”, the “folding stability dG unfold” value was -0.0287 ± 0.056 kcal/mol in series [1], 0.274 ± 0.095 kcal/mol in series [2] and 0.441 ± 0.081 kcal/mol in series [3].

For the sequence “SAGGPLRIHISIENPNGKTLTYQIPLPPGDPEEAVKEIADEMKERGGTITSIEIENGVITITVRIPPSAGGS [r16_662_TrROS]”, the “folding stability dG unfold” value in series [1] was 2.32 ± 0.059 kcal/mol; in series [2] it was 2.8 ± 0.075 kcal/mol; in series [3] it was 2.97 ± 0.046 kcal/mol.

As for “SAGGPLTEEQLKEQAKQIKDQLAKEFADMNGFPVTEIDDVEVVPDGWISIEIEYPGMGMPYTITIPWSAGGS [r16_622_TrROS]”, the “folding stability dG unfold” value in series [1] is 0.887 ± 0.053 kcal/mol; in series [2], 1.02 ± 0.095 kcal/mol; in series [3], 1.02 ± 0.16 kcal/mol.

As for “SAGGPNIRIDINLMPHPGKPYIMVRIEIPNGYKREIMFNPDDGKISIEIRYPGKEEKIEFPLDDIKPISAGG [r13_328_TrROS]”, the entries for the “folding stability dG unfold” value in series [1], in series [2] and in series [3] were 3.48 ± 0.5 kcal/mol, 4.42 ± 0.32 kcal/mol and 4.7 ± 0.3 kcal/mol, respectively.

In the case of “SAGGPNKPIKIKIMIWRDPGGWYIAIRIPDGNTRMFKSPEQIKSILEKFPGLKIDEIEIIPPDQMKKLSAGG [r13_730_TrROS]”, the “folding stability dG unfold” value is 1.7 ± 0.025 kcal/mol in series [1], 2 ± 0.079 kcal/mol in series [2] and 2.23 ± 0.073 kcal/mol in series [3].

In the case of “SAGGPNWMQMEIWLPPGNPEKIEKIIRDKGWKVEDIKVKEVNPNNGWMRVTIYMPGPWPMDEIKEAVRSAGG [r13_725_TrROS]”, the “folding stability dG unfold” value in series [1] was 1.96 ± 0.11 kcal/mol; in series [2], 3.15 ± 0.25 kcal/mol; in series [3], 3.6 ± 0.16 kcal/mol.

Take “SAGGPNWYLKVKIEHRYPNPDNGKWQERRMEVIIPFKDPDQLPPNALKKLIDIMQPMGFRVDVELFPWSAGG [r13_926_TrROS]”: the “folding stability dG unfold” value in series [1] was found to be 3.19 ± 0.23 kcal/mol; in series [2], 3.76 ± 0.28 kcal/mol; in series [3], 3.99 ± 0.12 kcal/mol.

Regarding “SAGGPPEGEKKKFRIDDVQPMPNPNGYFMVQIRYNDKPVSSIPIPPNNLDKLANDLPPGMEVEIYPFSAGGS [r8_41_TrROS]”, the “folding stability dG unfold” value in series [1] amounted to 0.06 ± 0.11 kcal/mol; in series [2] it was 0.369 ± 0.21 kcal/mol; in series [3] it was 0.511 ± 0.19 kcal/mol.

In the case of “SAGGPPFKIKEINIQYNPDAGYVTMTFTFDDGATVEAMISPEEGRIPGKVEVPGKEIEHEFEIPVPPSAGGS [r8_363_TrROS]”, the “folding stability dG unfold” value in series [1] was 1.4 ± 0.041 kcal/mol; in series [2], 1.38 ± 0.19 kcal/mol; in series [3], 1.5 ± 0.099 kcal/mol.

In the case of “SAGGPPGDPILLRISYTIRPNGKERTMDHEIPFKNPNQPITLEQIRKELRDALPPGYKITDVEIDVLSAGGS [r16_407_TrROS]”, the “folding stability dG unfold” value in series [1] was found to be 0.364 ± 0.069 kcal/mol; in series [2], 0.444 ± 0.1 kcal/mol; in series [3], 0.276 ± 0.16 kcal/mol.
